Patent publication US20130096281A1

Target: [Ag] (UniProt P04626)
Experiment: yeast display titration (flow cytometry); Lip2prepro leader, Sag1p fusion

Substance: preproA1-Herceptin scFv
- Kd: 2.51 nM
